The solubility is how much of the substance goes into solution per volume. A higher solubility goes with much dissolved substance.

Series [1] is described as follows: Self-assembly and TEM imaging (filament diameter). As to conditions: self-assembled in PBS pH 7.4; mean±SD (n=30). The format is physicochemical. The procedure: Self-Assembly, Co-Assembly, and TEM Imaging. For self-assembly, filler or ligand molecules were dissolved in PBS (20 mM sodium phosphate, 150 mM sodium chloride, pH 7.4) to reach a final concentration of 2.5 mM or 400 μM, respectively, and aged for 24 hours at room temperature. To construct co-assembled IFs, filler and ligand molecules were pretreated with hexafluoroisopropanol (HFIP) to eliminate any pre-existing nanostructures that could be possibly formed during the synthesis and purification process. After HFIP evaporation, filler and ligand molecules were dissolved in PBS (20 mM sodium phosphate, 150 mM sodium chloride, pH 7.4) to reach desired concentrations and aged for 24 hours at room temperature. 10 μl stock of each sample solution was then spotted on carbon film coated copper grids with 400 square mesh (Electron Microscopy Sciences, Hatfield, PA, USA) and the excess was removed with filter paper to leave a thin film of sample on the grid. After letting the sample dry for 5 minutes, 10 μl 2% uranyl acetate was added to the sample grid, and the excess was removed after 30 seconds. All samples were dried for at least three hours before imaging. Bright-field TEM imaging was performed on a FEI Tecnai 12 TWIN Transmission Electron Microscope and all TEM images were required by a SIS Megaview III wide-angle CCD camera.

A short description of series [2]: CMC measurement with Nile Red. Format: physicochemical. Particulars: ligand molecules in PBS. The procedure:
CMC measurement. The CMCs of the ligand molecules in PBS were determined using Nile Red, a hydrophobic dye that undergoes changes in both fluorescence intensity and emission wavelength (a blue-shift) upon partition into the hydrophobic domains of supramolecular assemblies. Nile Red was initially dissolved in acetone at 20 μM and 10 μl aliquots were loaded into several centrifuge tubes. After the acetone evaporated under room temperature. 500 μl fresh ligand solutions in PBS at various concentrations were added into the centrifuge tubes containing dry Nile Red and aged overnight for assembly. Fluorescent spectra of Nile Red were then monitored by a Fluorolog fluorometer (Jobin Yvon, Edison, NJ, USA) with fixed excitation wavelength at 560 nm; emission spectra were monitored at 580-720 nm. The ratio of the emission intensity at 635 nm (emission maximum of Nile red in a hydrophobic environment) to that at 660 nm (emission maximum of Nile red in an aqueous environment) was then plotted against the tested concentrations to obtain a transition curve, and the CMC value was determined by the intersection of the two fitting lines.

In series [3] the target is T1, pure mAb1 (Homo sapiens, UniProt P01857).
T1 construct: host or cells: CHO is stated only for the clarified harvest
T1 sequence (P01857 1-330 isoform P01857-1): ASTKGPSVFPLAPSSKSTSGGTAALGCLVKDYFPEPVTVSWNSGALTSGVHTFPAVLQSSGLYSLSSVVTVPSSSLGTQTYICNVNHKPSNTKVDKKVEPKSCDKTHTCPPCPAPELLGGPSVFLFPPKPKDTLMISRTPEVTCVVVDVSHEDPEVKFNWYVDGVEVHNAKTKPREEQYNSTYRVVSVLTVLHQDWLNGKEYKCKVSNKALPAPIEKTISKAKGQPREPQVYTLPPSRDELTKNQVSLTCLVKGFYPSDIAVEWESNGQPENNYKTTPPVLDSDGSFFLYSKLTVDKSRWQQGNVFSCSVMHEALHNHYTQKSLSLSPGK
As to the kind of experiment: mAb precipitation experiment with co-assembled IFs. As to conditions: for mAb precipitation yield at optimal O16 concentration: 2.5 mM filler. The procedure:
mAb Precipitation Experiment. IF stock solutions at desired filler and ligand concentrations were prepared one day before the precipitation experiment. In experimental groups, pure mAb1 from a concentrated solution (448 μM, 64.5 g/L) was then added into 100 μL IF solutions to reach a desired final concentration and incubated for 30 minutes at room temperature. The solution was then centrifuged at 15000 rpm for 15 minutes. For the 1M salt group, ammonium sulfate was added to the mAb-IF mixtures to reach a final concentration of 1M and incubated for another 30 minutes before centrifugation. The supernatant was taken out and analyzed by ProA-HPLC (POROS™ A 20 μm Column, Stainless Steel, 2.1×30 mm, 0.1 mL) to determine the protein concentrations. The precipitated amount of each species was calculated by subtracting the amount in the supernatant from the amount added. The precipitation yield was calculated by dividing […].

Another series deals with T2, mAb1 (Homo sapiens, UniProt P01857).
T2 construct: host or cells: CHO is stated only for the clarified harvest
T2 sequence (P01857 1-330 isoform P01857-1): as above
As to the kind of experiment: Turbidity of mAb1-IF mixture (absorbance at 350 nm). As to conditions: 40 μM mAb1, 2.5 mM filler, 250 μM O16, absorbance at 350 nm.

Series [4] deals with T1, pure mAb1. As to the kind of experiment: Sequential precipitation and mAb elution using IF solutions. Here is the method: Sequential Precipitation and mAb Elution Using IF Solutions. Three IF stock solutions. IF1 (2.5 mM filler, 250 μM O16). IF2 (2.5 mM filler, 750 μM O16), and IF3 (2.5 mM filler. 200 μM O16), were prepared one day before the precipitation experiment. Pure mAb1 from a concentrated solution (448 μM, 64.5 g/L) was added into 100 uL IF1 and 100 uL IF2 to reach a desired final concentration of 40 μM and 80 μM, respectively. After a 4-hour incubation, the samples were then centrifuged at 15000 rpm for 15 minutes and the supernatant was transferred to 100 uL IF3 for another 4-hour incubation and subsequent centrifugation. 200 μL PBS and 400 μL elution buffer (40 mM sodium acetate. pH 3.7) were then used to wash and resuspend the precipitates from the two precipitation steps. The supernatant from each precipitation step, wash step, and elution step were analyzed by ProA-HPLC (POROS™ A 20 μm Column, Stainless Steel, 2.1×30 mm, 0.1 mL) to determine mAb concentration.

The target in series [5] is T1, pure mAb1. As to the kind of experiment: mAb precipitation experiment with co-assembled IFs. Particulars: 40 μM mAb1, 2.5 mM filler.
The target of series [6] is T3, mAb1 in clarified CHO cell culture harvest (Homo sapiens, UniProt P01857).
T3 construct: host or cells: Chinese hamster ovary (CHO) cells; harvest clarified by depth filtration
T3 sequence (P01857 1-330 isoform P01857-1): as above
As to the kind of experiment: Purification of mAb1 from clarified cell culture harvest. As to conditions: sequential precipitation, no salt. Here is the method:
Purification of mAb1 from Clarified Cell Culture Harvest. mAb1 at clarified bulk state were incubated with optimized IFs (100 μL) at a concentration of 40 μM or 80 μM for 30 minutes. Same procedures were performed to precipitate mAb1 and obtain the centrifuged pellets. The pellets were then resuspended in […] (400 μL, 40 mM sodium acetate. pH 3.7) and transferred to a dialysis tube (Pur-A-Lyzer Maxi, 50 kDa cut-off molecular weight. Sigma-Aldrich. St. Louis, MO. USA). The resuspended solution was then dialyzed against 40 mM sodium acetate (1 L) at pH 3.7 for 24 hours with dialysis buffer replaced three times. The protein, filler, and ligand concentrations were determined by ProA-HPLC and RP-UPLC.

Series [7] deals with T1, pure mAb1. The series is described as follows: Sequential precipitation of high mAb titers using lyophilized IFs. Particulars: lyophilized IFs (2.5 mM filler, 400 μM O16); for mAb precipitation yield after six precipitation steps: no salt. Here is the method:
Sequential Precipitation of High mAb Titers Using Lyophilized IFs. Six lyophilized IF stock powders (IF4-IF9) were prepared such that upon dissolution in 100 μL, the concentrations of the filler and O16 would be 2.5 mM and 400 μM, respectively. Lyophilized IF powders were prepared one day before the precipitation experiment. The IFs were allowed to co-assemble in water for 24 hours prior to lyophilization. Pure mAb1 from concentrated stock solutions of either (146 μM, 21 g/L) or (215 μM, 31 g/L) was added to the lyophilized IF4. After a 1-hour incubation, the samples were centrifuged at 15000 rpm for 15 minutes. Following centrifugation, the volume of supernatant was measured and fresh PBS was added until a final supernatant volume of 100 μL was reached. The 100 μL supernatant following the first precipitation step was then added to the next lyophilized IF stock powder (IF5) and allowed to incubate for another hour. This process of incubation, centrifugation, and supernatant transfer was repeated until all six lyophilized IFs (IF4-IF9) had been used for mAb precipitation. The supernatants after the first, third, and sixth precipitation steps were analyzed using ProA-HPLC to measure the cumulative amount of mAbs remaining throughout the precipitation process.

Series [8] is described as follows: Solubility limit of filler molecule in PBS. The format is physicochemical. As to conditions: in PBS (pH 7.4).

In brackets after ≈: the same amount, converted by molar mass. Peptide text beside a SMILES is read from it. * marks the point of attachment. Lauroyl = CCCCCCCCCCCC(=O)* A value given as a limit tells only on which side of the number the result lay.

Take “P2000: ligand molecule C12-VVKK[Linker]Z33, linker PEG2000”: the “diameter of self-assembled filamentous structures (TEM)” value (from here on “diameter”) in [1] was 19.3±2.0 nm. In series [2], this compound registered a CMC of 8.1 µM.
Take “O12: ligand molecule C12-VVKK[Linker]Z33, linker OEG12”: the “diameter” value in [1] was 13.6±1.2 nm. In [2], this compound had a CMC of 8.5 µM.
Take “O36: ligand molecule C12-VVKK[Linker]Z33, linker OEG36”: the “diameter” value in series [1] was found to be 18.5±1.8 nm. Besides, the “yield discrepancy between 1M salt and no salt groups” value in the series with pure mAb1 [3] (20 μM mAb1, 2.5 mM filler, 100 μM ligand) was “less than 10%”. In the series with pure mAb1 [3] (all conditions (20 and 40 μM mAb1, 1 M salt or no salt)), the “mAb precipitation yield, ranking among ligands” value is “best mAb precipitation yields in all conditions”. For the same compound, the CMC in [2] is 9.1 µM.
For the compound “O16: ligand molecule C12-VVKK[Linker]Z33, linker OEG16”, in the series with mAb1, the “time to turbidity plateau” value was ≤ 30 min. Moreover, the “diameter” value in series [1] came to 14.9±1.3 nm. Moreover, the “mAb1 precipitated in first precipitation” value with pure mAb1 [4] (40 μM pure mAb1, IFs with 250 μM O16, no salt) is “More than 82%”; with pure mAb1 [4] (80 μM pure mAb1, IFs with 750 μM O16, no salt), “More than 82%”. For the same compound, the elution yield is given as ~88% in the series with pure mAb1 [4] (40 μM pure mAb1, elution buffer 40 mM sodium acetate pH 3.7) and ~88% with pure mAb1 [4] (80 μM pure mAb1, elution buffer 40 mM sodium acetate pH 3.7). For the same compound, the “final precipitation yield after two sequential precipitations” value with pure mAb1 [4] (40 μM pure mAb1, second step IFs with 200 μM O16, no salt) was “greater than 97%”; with pure mAb1 [4] (80 μM pure mAb1, second step IFs with 200 μM O16, no salt) it was “greater than 97%”. Also, the mAb precipitation yield in the series with pure mAb1 [3] (40 μM mAb1, 2.5 mM filler, 250 μM O16, binding time 30 minutes) is reported as 83%; in the series with pure mAb1 [3] (40 μM mAb1, optimal IFs (2.5 mM filler, 250 μM O16), 1 M salt), “More than 99%”; with pure mAb1 [3] (40 μM mAb1, optimal IFs (2.5 mM filler, 250 μM O16), no salt) it was 88%; with pure mAb1 [5] (250 μM O16, binding time 2 hours) it was 88%; with pure mAb1 [5] (250 μM O16, binding time 24 hours), 92%. The “mAb precipitation yield at optimal O16 concentration” value with pure mAb1 [3] (40 μM mAb1, no salt) is recorded as “around 85%”; with pure mAb1 [3] (80 μM mAb1, no salt), “around 85%”; with pure mAb1 [3] (133 μM mAb1, no salt) it was “about 65%”. For the same compound, the “O16 concentration giving the best mAb precipitation yield” value in the series with pure mAb1 [3] (100 μL mAb1 at 10 μM and 20 μM with 100 μL IFs) was found to be 200 µM. The “mAb1 precipitation yield from clarified cell culture harvest” value in series [6] (40 μM mAb1 CB) is “more than 86%”; in series [6] (80 μM mAb1 CB), > 90%. Also, the figures for the “mAb precipitation yield after six precipitation steps” value with pure mAb1 [7] (21 mg/mL pure mAb) and with pure mAb1 [7] (31 mg/ml pure mAb) were 96% and 98%, respectively. Moreover, the “mAb precipitation yield after first precipitation step” value with pure mAb1 [7] (21 or 31 mg/mL mAb) is listed as “around 20%”. Besides, the “mAb precipitation yield after three precipitation steps” value with pure mAb1 [7] (21 or 31 mg/mL mAb) is on record as ~80%. In series [2], this compound showed a CMC of 10.5 µM.
Turning to `CCCCCCCCCCCC(=O)N[C@H](C(=O)N[C@H](C(=O)N[C@@H](CCC(=O)O)C(=O)N[C@@H](CCC(=O)O)C(=O)O)C(C)C)C(C)C` [C12-VVEE] (Lauroyl-VVEE-OH; N-terminus and C-terminus assumed), in series [8], the solubility came out at 2500 µM (≈ 1640 µg/mL).

The values above are taken from patent publication US20240327455A1, “HIGH-AFFINITY SUPRAMOLECULAR POLYMERS FOR BINDING-TRIGGERED ANTIBODY PRECIPITATION AND PURIFICATION” (The Johns Hopkins University, priority 2021, published 2024).
